Laboratory results reported in US20210032299A1 (Eli Lilly, published 2021).
Starred links: 1 amine or outer side, 2 acyl side, 3 side chain; linkers in the order of their positions; H or OH if unused. Non-standard residues stand in square brackets, D forms with d. Groups on a side chain read outwards from the residue. No end group written: not given here. *: point of attachment. C20 diacid = O=C(O)CCCCCCCCCCCCCCCCCCC(=O)*; C18 diacid = O=C(O)CCCCCCCCCCCCCCCCC(=O)*; γGlu = O=C(O)[C@H](CCC(=O)[*:2])N[*:1]; 4Pal = N[C@@H](Cc1ccncc1)C(=O)O; αMeL = CC(C)C[C@](C)(N)C(=O)O; AEEA = NCCOCCOCC(=O)O; Aib = CC(C)(N)C(=O)O

T1: human glucose-dependent insulinotropic polypeptide (GIP) receptor (human, UniProt P48546 22-466)
T1 construct: whole, on cells; Assayed as crude membranes of stably transfected CHO cells; also called hGIPR; human GIP receptor
T1 sequence (looked up): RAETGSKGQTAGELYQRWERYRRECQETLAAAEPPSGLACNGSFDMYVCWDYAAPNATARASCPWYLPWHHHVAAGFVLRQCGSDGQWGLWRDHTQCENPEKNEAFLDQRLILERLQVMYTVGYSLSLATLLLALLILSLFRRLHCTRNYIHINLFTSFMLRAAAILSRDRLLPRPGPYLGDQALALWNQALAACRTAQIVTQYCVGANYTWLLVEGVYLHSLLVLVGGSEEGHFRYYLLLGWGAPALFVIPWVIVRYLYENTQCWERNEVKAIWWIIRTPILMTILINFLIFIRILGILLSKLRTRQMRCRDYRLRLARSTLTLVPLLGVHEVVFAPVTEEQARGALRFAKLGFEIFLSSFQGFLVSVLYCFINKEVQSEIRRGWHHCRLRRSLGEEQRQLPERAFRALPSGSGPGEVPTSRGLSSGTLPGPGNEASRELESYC

B1: Example 24 (peptide)
peptide: Y[Aib]EGTFISDYSI[Aib]LDKK([AEEA-AEEA-γGlu-C18 diacid])HQ[Aib]DFVE[4Pal]LLAGGPSSGAPPPS-NH2
modifications: N-terminus assumed
SMILES: CC[C@H](C)[C@H](NC(=O)[C@H](Cc1ccccc1)NC(=O)[C@@H](NC(=O)CNC(=O)[C@H](CCC(=O)O)NC(=O)C(C)(C)NC(=O)[C@@H](N)Cc1ccc(O)cc1)[C@@H](C)O)C(=O)N[C@@H](CO)C(=O)N[C@@H](CC(=O)O)C(=O)N[C@@H](Cc1ccc(O)cc1)C(=O)N[C@@H](CO)C(=O)N[C@H](C(=O)NC(C)(C)C(=O)N[C@@H](CC(C)C)C(=O)N[C@@H](CC(=O)O)C(=O)N[C@@H](CCCCN)C(=O)N[C@@H](CCCCNC(=O)COCCOCCNC(=O)COCCOCCNC(=O)CC[C@H](NC(=O)CCCCCCCCCCCCCCCCC(=O)O)C(=O)O)C(=O)N[C@@H](Cc1c[nH]cn1)C(=O)N[C@@H](CCC(N)=O)C(=O)NC(C)(C)C(=O)N[C@@H](CC(=O)O)C(=O)N[C@@H](Cc1ccccc1)C(=O)N[C@H](C(=O)N[C@@H](CCC(=O)O)C(=O)N[C@@H](Cc1ccncc1)C(=O)N[C@@H](CC(C)C)C(=O)N[C@@H](CC(C)C)C(=O)N[C@@H](C)C(=O)NCC(=O)NCC(=O)N1CCC[C@H]1C(=O)N[C@@H](CO)C(=O)N[C@@H](CO)C(=O)NCC(=O)N[C@@H](C)C(=O)N1CCC[C@H]1C(=O)N1CCC[C@H]1C(=O)N1CCC[C@H]1C(=O)N[C@@H](CO)C(N)=O)C(C)C)[C@@H](C)CC
B2: Example 83 (peptide)
peptide: Y[Aib]EGTFISDYSI[αMeL]LDEK([AEEA-AEEA-γGlu-C20 diacid])HQ[Aib]DFVE[4Pal]LLATGPSSGAPPPS-NH2
modifications: N-terminus assumed
SMILES: CC[C@H](C)[C@H](NC(=O)[C@H](Cc1ccccc1)NC(=O)[C@@H](NC(=O)CNC(=O)[C@H](CCC(=O)O)NC(=O)C(C)(C)NC(=O)[C@@H](N)Cc1ccc(O)cc1)[C@@H](C)O)C(=O)N[C@@H](CO)C(=O)N[C@@H](CC(=O)O)C(=O)N[C@@H](Cc1ccc(O)cc1)C(=O)N[C@@H](CO)C(=O)N[C@H](C(=O)N[C@@](C)(CC(C)C)C(=O)N[C@@H](CC(C)C)C(=O)N[C@@H](CC(=O)O)C(=O)N[C@@H](CCC(=O)O)C(=O)N[C@@H](CCCCNC(=O)COCCOCCNC(=O)COCCOCCNC(=O)CC[C@H](NC(=O)CCCCCCCCCCCCCCCCCCC(=O)O)C(=O)O)C(=O)N[C@@H](Cc1c[nH]cn1)C(=O)N[C@@H](CCC(N)=O)C(=O)NC(C)(C)C(=O)N[C@@H](CC(=O)O)C(=O)N[C@@H](Cc1ccccc1)C(=O)N[C@H](C(=O)N[C@@H](CCC(=O)O)C(=O)N[C@@H](Cc1ccncc1)C(=O)N[C@@H](CC(C)C)C(=O)N[C@@H](CC(C)C)C(=O)N[C@@H](C)C(=O)N[C@H](C(=O)NCC(=O)N1CCC[C@H]1C(=O)N[C@@H](CO)C(=O)N[C@@H](CO)C(=O)NCC(=O)N[C@@H](C)C(=O)N1CCC[C@H]1C(=O)N1CCC[C@H]1C(=O)N1CCC[C@H]1C(=O)N[C@@H](CO)C(N)=O)[C@@H](C)O)C(C)C)[C@@H](C)CC
B3: Example 84 (peptide)
peptide: Y[Aib]EGTFISDYSI[αMeL]LDEK([AEEA-AEEA-γGlu-C20 diacid])HQ[Aib]DFVE[4Pal]LLAQGPSSGAPPPS-NH2
modifications: N-terminus assumed
SMILES: CC[C@H](C)[C@H](NC(=O)[C@H](Cc1ccccc1)NC(=O)[C@@H](NC(=O)CNC(=O)[C@H](CCC(=O)O)NC(=O)C(C)(C)NC(=O)[C@@H](N)Cc1ccc(O)cc1)[C@@H](C)O)C(=O)N[C@@H](CO)C(=O)N[C@@H](CC(=O)O)C(=O)N[C@@H](Cc1ccc(O)cc1)C(=O)N[C@@H](CO)C(=O)N[C@H](C(=O)N[C@@](C)(CC(C)C)C(=O)N[C@@H](CC(C)C)C(=O)N[C@@H](CC(=O)O)C(=O)N[C@@H](CCC(=O)O)C(=O)N[C@@H](CCCCNC(=O)COCCOCCNC(=O)COCCOCCNC(=O)CC[C@H](NC(=O)CCCCCCCCCCCCCCCCCCC(=O)O)C(=O)O)C(=O)N[C@@H](Cc1c[nH]cn1)C(=O)N[C@@H](CCC(N)=O)C(=O)NC(C)(C)C(=O)N[C@@H](CC(=O)O)C(=O)N[C@@H](Cc1ccccc1)C(=O)N[C@H](C(=O)N[C@@H](CCC(=O)O)C(=O)N[C@@H](Cc1ccncc1)C(=O)N[C@@H](CC(C)C)C(=O)N[C@@H](CC(C)C)C(=O)N[C@@H](C)C(=O)N[C@@H](CCC(N)=O)C(=O)NCC(=O)N1CCC[C@H]1C(=O)N[C@@H](CO)C(=O)N[C@@H](CO)C(=O)NCC(=O)N[C@@H](C)C(=O)N1CCC[C@H]1C(=O)N1CCC[C@H]1C(=O)N1CCC[C@H]1C(=O)N[C@@H](CO)C(N)=O)C(C)C)[C@@H](C)CC
B4: Example 10 (peptide)
peptide: Y[dA]EGTFISDYSILLDKK([AEEA-AEEA-γGlu-C20 diacid])HQQDFVNWLLAGGPSSGAPPPS-NH2
modifications: N-terminus assumed
SMILES: CC[C@H](C)[C@H](NC(=O)[C@H](CO)NC(=O)[C@H](Cc1ccc(O)cc1)NC(=O)[C@H](CC(=O)O)NC(=O)[C@H](CO)NC(=O)[C@@H](NC(=O)[C@H](Cc1ccccc1)NC(=O)[C@@H](NC(=O)CNC(=O)[C@H](CCC(=O)O)NC(=O)[C@@H](C)NC(=O)[C@@H](N)Cc1ccc(O)cc1)[C@@H](C)O)[C@@H](C)CC)C(=O)N[C@@H](CC(C)C)C(=O)N[C@@H](CC(C)C)C(=O)N[C@@H](CC(=O)O)C(=O)N[C@@H](CCCCN)C(=O)N[C@@H](CCCCNC(=O)COCCOCCNC(=O)COCCOCCNC(=O)CC[C@H](NC(=O)CCCCCCCCCCCCCCCCCCC(=O)O)C(=O)O)C(=O)N[C@@H](Cc1c[nH]cn1)C(=O)N[C@@H](CCC(N)=O)C(=O)N[C@@H](CCC(N)=O)C(=O)N[C@@H](CC(=O)O)C(=O)N[C@@H](Cc1ccccc1)C(=O)N[C@H](C(=O)N[C@@H](CC(N)=O)C(=O)N[C@@H](Cc1c[nH]c2ccccc12)C(=O)N[C@@H](CC(C)C)C(=O)N[C@@H](CC(C)C)C(=O)N[C@@H](C)C(=O)NCC(=O)NCC(=O)N1CCC[C@H]1C(=O)N[C@@H](CO)C(=O)N[C@@H](CO)C(=O)NCC(=O)N[C@@H](C)C(=O)N1CCC[C@H]1C(=O)N1CCC[C@H]1C(=O)N1CCC[C@H]1C(=O)N[C@@H](CO)C(N)=O)C(C)C
B5: Example 32 (peptide)
peptide: Y[dA]EGTLISDYSILLDKK([AEEA-AEEA-γGlu-C18 diacid])AQ[Aib]DFVNWLLAQGPSSGAPPPS-NH2
modifications: N-terminus assumed
SMILES: CC[C@H](C)[C@H](NC(=O)[C@H](CO)NC(=O)[C@H](Cc1ccc(O)cc1)NC(=O)[C@H](CC(=O)O)NC(=O)[C@H](CO)NC(=O)[C@@H](NC(=O)[C@H](CC(C)C)NC(=O)[C@@H](NC(=O)CNC(=O)[C@H](CCC(=O)O)NC(=O)[C@@H](C)NC(=O)[C@@H](N)Cc1ccc(O)cc1)[C@@H](C)O)[C@@H](C)CC)C(=O)N[C@@H](CC(C)C)C(=O)N[C@@H](CC(C)C)C(=O)N[C@@H](CC(=O)O)C(=O)N[C@@H](CCCCN)C(=O)N[C@@H](CCCCNC(=O)COCCOCCNC(=O)COCCOCCNC(=O)CC[C@H](NC(=O)CCCCCCCCCCCCCCCCC(=O)O)C(=O)O)C(=O)N[C@@H](C)C(=O)N[C@@H](CCC(N)=O)C(=O)NC(C)(C)C(=O)N[C@@H](CC(=O)O)C(=O)N[C@@H](Cc1ccccc1)C(=O)N[C@H](C(=O)N[C@@H](CC(N)=O)C(=O)N[C@@H](Cc1c[nH]c2ccccc12)C(=O)N[C@@H](CC(C)C)C(=O)N[C@@H](CC(C)C)C(=O)N[C@@H](C)C(=O)N[C@@H](CCC(N)=O)C(=O)NCC(=O)N1CCC[C@H]1C(=O)N[C@@H](CO)C(=O)N[C@@H](CO)C(=O)NCC(=O)N[C@@H](C)C(=O)N1CCC[C@H]1C(=O)N1CCC[C@H]1C(=O)N1CCC[C@H]1C(=O)N[C@@H](CO)C(N)=O)C(C)C

What was measured:
[1] = target: T2, human GLP-1 receptor (human, UniProt P43220 24-463); test: SPA, displacement of [125I]-GLP-1 from hGLP-1R membranes, 0.1% bacitracin
T2 construct: whole, on cells; Assayed as crude membranes of stably transfected HEK293 cells; also called hGLP1R; hGLP-1R
Procedure: The binding buffer contains 25 mM HEPES, pH 7.4, 2.5 mM CaCl₂, 1 mM MgCl₂, 0.1% (w/v) bacitracin, 0.003% (w/v) TWEEN®-20, and Roche Complete™ Protease Inhibitors without EDTA.
(§1) Data are analyzed using four-parameter (curve maximum, curve minimum, […], Hill slope) nonlinear regression routines (Genedata Screener, version 12.0.4, Genedata AG, Basal, Switzerland). […] Values for Kᵢ are reported as the geometric mean, with error expressed as the standard error of the mean (SEM) and n is equal to the number of independent replicates (determined in assays performed on different days). Geometric Means are calculated as follows: […]

[2] = target: T1, human glucose-dependent insulinotropic …; test: SPA, displacement of [125I]-GIP from hGIPR membranes, 0.1% bacitracin
Procedure: The binding buffer contains 25 mM HEPES, pH 7.4, 2.5 mM CaCl₂, 1 mM MgCl₂, 0.1% (w/v) bacitracin, 0.003% (w/v) TWEEN®-20, and Roche Complete™ Protease Inhibitors without EDTA. […] Plates are sealed and mixed on a plate shaker (setting 6) for 1 minute and read with a PerkinElmer Trilux MicroBeta® scintillation counter after 2.5 to 12 hours of incubation/settling time at room temperature.
as §1

Binder | Ki [1] | Ki [2]
B1 | 729 nM | 0.254 nM
B2 | 452 nM | 0.116 nM
B3 | 325 nM | 0.0584 nM
B4 | 60.7 nM | 0.159 nM
B5 | 85.2 nM | 0.0343 nM
